Our source for the Kd values is article PMC9367177.

For the experiment, the target named is SARS-CoV-2 RBD (Wuhan-1), monomeric, His-Avitag (SARS-CoV-2, Wuhan-1) (UniProt P0DTC2). Put plainly: SPR. In general terms: Surface plasmon resonance follows binding to a sensor surface in real time, without labels.

The Kd is the equilibrium constant for the complex coming apart. A higher Kd goes with weaker binding.

CC12.1 IgG (antibody) came in with a Kd of 6 nM.
